Measured values taken from US20250289905A1 (MIRIMGENE, published 2025).
Where a chain is given by its changes, count along the chain named. Numbers in names are those of the source.

T1: pig-derived WARS1 recombinant protein (pig) (UniProt K9IVV5)
T1 sequence: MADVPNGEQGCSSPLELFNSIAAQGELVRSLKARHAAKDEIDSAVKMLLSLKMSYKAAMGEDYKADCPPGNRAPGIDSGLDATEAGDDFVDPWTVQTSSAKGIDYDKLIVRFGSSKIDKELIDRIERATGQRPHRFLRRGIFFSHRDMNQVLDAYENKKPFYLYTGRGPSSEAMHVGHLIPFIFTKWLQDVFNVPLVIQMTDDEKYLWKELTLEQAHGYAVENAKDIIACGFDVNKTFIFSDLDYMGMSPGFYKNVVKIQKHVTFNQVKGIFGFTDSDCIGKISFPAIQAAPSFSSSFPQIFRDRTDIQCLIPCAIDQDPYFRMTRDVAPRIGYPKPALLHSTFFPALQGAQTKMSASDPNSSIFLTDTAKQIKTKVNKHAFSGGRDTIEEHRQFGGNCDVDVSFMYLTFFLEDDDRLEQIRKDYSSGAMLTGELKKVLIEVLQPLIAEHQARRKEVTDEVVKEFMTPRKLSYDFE

T2: human WARS1 recombinant protein (human, UniProt P23381 2-471, limits assumed)
T2 construct: Recombinant protein, detected with an anti-His tag antibody; In the western blot also secreted WARS1 from THP-1 supernatant and human serum; also called human-derived WARS1 recombinant protein
T2 sequence: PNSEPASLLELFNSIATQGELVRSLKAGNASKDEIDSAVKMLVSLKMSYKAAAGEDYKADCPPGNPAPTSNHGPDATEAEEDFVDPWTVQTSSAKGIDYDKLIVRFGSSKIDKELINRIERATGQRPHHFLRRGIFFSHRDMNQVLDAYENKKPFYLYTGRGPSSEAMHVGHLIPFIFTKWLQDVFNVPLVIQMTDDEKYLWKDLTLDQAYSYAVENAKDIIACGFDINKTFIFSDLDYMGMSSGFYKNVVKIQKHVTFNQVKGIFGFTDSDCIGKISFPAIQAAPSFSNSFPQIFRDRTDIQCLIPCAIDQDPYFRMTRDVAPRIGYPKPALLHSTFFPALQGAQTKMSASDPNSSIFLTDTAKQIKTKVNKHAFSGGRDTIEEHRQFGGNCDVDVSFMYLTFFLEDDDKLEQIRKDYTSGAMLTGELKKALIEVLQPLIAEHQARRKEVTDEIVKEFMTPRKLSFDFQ

T3: mouse-derived WARS1 recombinant protein (mouse, UniProt P32921 1-481, limits assumed)
T3 construct: Recombinant, His-tagged (detected with anti-His tag antibody); construct not described; In the western blot also secreted WARS1 from J774A.1 supernatant and mouse serum; also called mouse WARS1
T3 sequence (looked up): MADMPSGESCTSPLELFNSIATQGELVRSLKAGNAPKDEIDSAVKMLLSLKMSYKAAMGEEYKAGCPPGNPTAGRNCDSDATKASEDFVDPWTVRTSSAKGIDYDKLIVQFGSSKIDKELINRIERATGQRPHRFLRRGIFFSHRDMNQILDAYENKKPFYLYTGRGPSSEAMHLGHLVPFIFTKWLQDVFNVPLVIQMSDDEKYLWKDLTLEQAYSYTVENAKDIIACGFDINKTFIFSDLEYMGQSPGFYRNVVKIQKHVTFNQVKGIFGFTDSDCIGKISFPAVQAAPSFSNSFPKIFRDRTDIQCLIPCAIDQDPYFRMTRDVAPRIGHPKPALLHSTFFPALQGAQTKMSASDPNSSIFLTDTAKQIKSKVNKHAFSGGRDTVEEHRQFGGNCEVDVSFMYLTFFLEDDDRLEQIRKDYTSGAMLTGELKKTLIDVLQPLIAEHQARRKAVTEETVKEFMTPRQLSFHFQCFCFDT

T4: rat-derived WARS1 recombinant protein (rat, UniProt Q6P7B0 1-481, limits assumed)
T4 construct: Recombinant, His-tagged (detected with anti-His tag antibody); construct not described; also called rat WARS1
T4 sequence (looked up): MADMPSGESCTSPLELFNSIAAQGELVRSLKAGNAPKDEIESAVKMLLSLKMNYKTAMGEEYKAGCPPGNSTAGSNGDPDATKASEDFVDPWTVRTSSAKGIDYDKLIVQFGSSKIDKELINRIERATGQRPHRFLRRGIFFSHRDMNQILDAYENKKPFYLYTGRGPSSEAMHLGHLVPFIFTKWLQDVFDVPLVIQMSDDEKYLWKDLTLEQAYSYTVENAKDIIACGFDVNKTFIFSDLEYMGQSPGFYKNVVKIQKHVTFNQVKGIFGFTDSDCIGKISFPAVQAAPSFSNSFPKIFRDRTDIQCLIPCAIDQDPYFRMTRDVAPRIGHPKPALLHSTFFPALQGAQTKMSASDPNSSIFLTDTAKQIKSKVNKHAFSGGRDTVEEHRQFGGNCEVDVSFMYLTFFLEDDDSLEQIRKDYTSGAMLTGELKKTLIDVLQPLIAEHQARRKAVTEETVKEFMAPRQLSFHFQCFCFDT

B1: SHL/ILN (antibody, V domains shown)
VH: EVQLLESGGGLVQPGGSLRLSCAASGFTFSSYDMSWVRQAPGKGLEWVSAISSGGSSIYYADSVKGRFTISRDNSKNTLYLQMNSLRAEDTAVYYCARDVAWDMLGDFDYWGQGTLVTVSS
VL: QSVLTQPPSASGTPGQRVTISCTGSSSNIGSNYVYWYQQLPGTAPKLLIYANILRPSGVPDRFSGSKSGTSASLAISGLRSEDEADYYCGAWDDSNSAYVFGGGTKLTVLT
notes: L-CDR2 and L-CDR3 variant of GKB101; also called SHL/ILN antibody
B2: SHL/LLN (antibody, V domains shown)
VH: B1 VH
VL: B1 VL with I53L
notes: L-CDR2 and L-CDR3 variant of GKB101; also called SHL/LLN antibody
B3: S53V (antibody, V domains shown)
VH: B1 VH
VL: B1 VL with I53V, L54H, N96L
notes: L-CDR2 variant of GKB101; also called S53V antibody
B4: S53L (antibody, V domains shown)
VH: B1 VH
VL: B1 VL with I53L, L54H, N96L
notes: L-CDR2 variant of GKB101; also called S53L antibody
B5: H54K (antibody, V domains shown)
VH: B1 VH
VL: B1 VL with I53S, L54K, N96L
notes: L-CDR2 variant of GKB101; also called H54K antibody; M105A
B6: H54Q (antibody, V domains shown)
VH: B1 VH
VL: B1 VL with I53S, L54Q, N96L
notes: L-CDR2 variant of GKB101; also called H54Q antibody
B7: S53Q (antibody, V domains shown)
VH: B1 VH
VL: B1 VL with I53Q, L54H, N96L
notes: L-CDR2 variant of GKB101; also called S53Q antibody
B8: SH/QL (antibody, V domains shown)
VH: B1 VH
VL: B1 VL with I53Q, N96L
notes: L-CDR2 variant of GKB101; also called SH/QL antibody
B9: H54L (antibody, V domains shown)
VH: B1 VH
VL: B1 VL with I53S, N96L
notes: L-CDR2 variant of GKB101; also called H54L antibody
B10: GKB101 (antibody, V domains shown)
VH: B1 VH
VL: B1 VL with I53S, L54H, N96L
notes: Parent antibody; expressed in Expi293 cells; also called GKB101 antibody; anti-WARS1 antibody
B11: S53I (antibody, V domains shown)
VH: B1 VH
VL: B1 VL with L54H, N96L
notes: L-CDR2 variant of GKB101; also called S53I antibody
B12: SH/LL (antibody, V domains shown)
VH: B1 VH
VL: B1 VL with I53L, N96L
notes: L-CDR2 variant of GKB101; also called SH/LL antibody
B13: SH/IL (antibody, V domains shown)
VH: B1 VH
VL: B1 VL with N96L
notes: L-CDR2 variant of GKB101; also called SH/IL antibody
B14: H54F (antibody, V domains shown)
VH: B1 VH
VL: B1 VL with I53S, L54F, N96L
notes: L-CDR2 variant of GKB101; also called H54F antibody
B15: H54I (antibody, V domains shown)
VH: B1 VH
VL: B1 VL with I53S, L54I, N96L
notes: L-CDR2 variant of GKB101; also called H54I antibody
B16: S53T (antibody, V domains shown)
VH: B1 VH
VL: B1 VL with I53T, L54H, N96L
notes: L-CDR2 variant of GKB101; also called S53T antibody

Molecular target: marmoset (NHP)-derived WARS1 recombinant protein (marmoset (NHP)) (UniProt U3CR73)
Test: direct ELISA

Question: With B1 as the binder, how does the Kd read?
Answer: 1 pM

Question: With B2 as the binder, how does the Kd read?
Answer: 1 pM

Molecular target: T1, pig-derived WARS1 recombinant protein (pig)
Test: direct ELISA

Question: With B3 as the binder, how does the Kd read?
Answer: 1000 pM

Question: How did the Kd turn out when B4 was run?
Answer: 1000 pM

Question: For B5, which Kd is on record?
Answer: 1000 pM

Question: With B6 as the binder, how does the Kd read?
Answer: 1000 pM

Question: With B7 as the binder, how does the Kd read?
Answer: 1000 pM

Molecular target: T2, human WARS1 recombinant protein
Test: direct ELISA
Experimental: (§1) Specifically, for direct ELISA, a 96-well plate (Maxisorp, Thermo Fisher) was coated with WARS1 having a 1 μg/ml concentration of a recombinant protein derived from human, marmoset (NHP), mouse, rat, and pig, and then blocked with PBS containing 1% BSA at room temperature for 1 hour. The GKB101 antibody or a variant antibody thereof was diluted in a concentration-dependent manner, added to each coated well, reacted at room temperature for 1 hour, and then washed four times with PBST (PBS+Tween20). Each well was treated and reacted for 1 hour with an antibody (anti-Human IgG, cell signaling) to which HRP is attached, and then washed with PBST. Lastly, after developing with a TMB substrate (BD), its absorbance was measured at 490 nm (NIVO) (FIGS. 4a to 5).

Question: With B8 as the binder, how does the Kd read?
Answer: ~1 pM

Question: With B1 as the binder, how does the Kd read?
Answer: ~1 pM

Question: B5 was tested. Which Kd did it give?
Answer: ~1 pM

Question: Which Kd does the source give for B2 here?
Answer: ~1 pM

Question: Which Kd does the source give for B7 here?
Answer: ~1 pM

Molecular target: T3, mouse-derived WARS1 recombinant protein
Test: direct ELISA
Experimental: as §1

Question: For B8, which Kd is on record?
Answer: ~1 pM

Question: For B3, which Kd is on record?
Answer: ~1 pM

Question: For B1, which Kd is on record?
Answer: ~1 pM

Question: How did the Kd turn out when B5 was run?
Answer: ~1 pM

Question: For B2, which Kd is on record?
Answer: ~1 pM

Question: Which Kd does the source give for B6 here?
Answer: ~1 pM

Question: With B7 as the binder, how does the Kd read?
Answer: ~1 pM

Molecular target: T4, rat-derived WARS1 recombinant protein
Test: direct ELISA
Experimental: as §1

Question: How did the Kd turn out when B8 was run?
Answer: ~1 pM

Question: For B9, which Kd is on record?
Answer: ~1 pM

Question: Which Kd does the source give for B3 here?
Answer: ~1 pM

Question: Which Kd does the source give for B1 here?
Answer: ~1 pM

Question: How did the Kd turn out when B5 was run?
Answer: ~1 pM

Question: Which Kd does the source give for B2 here?
Answer: ~1 pM

Question: How did the Kd turn out when B6 was run?
Answer: ~1 pM

Question: For B7, which Kd is on record?
Answer: ~1 pM

Molecular target: T2, human WARS1 recombinant protein
Test: cell-based or functional assay

Question: For B10, which “secretion of TNF-α in mouse macrophage J774A.1 cells” value (shortened to “secretion of TNF-α”) is on record?
Answer: ≥ 40%

Question: How did the “secretion of TNF-α” value turn out when B11 was run?
Answer: ≥ 40%

Question: Which “secretion of TNF-α” value does the source give for B4 here?
Answer: ≥ 40%

Question: With B5 as the binder, how does the “secretion of TNF-α” value read?
Answer: ≥ 40%

Question: B2 was tested. Which “secretion of TNF-α” value did it give?
Answer: ≥ 40%

Question: How did the “secretion of TNF-α” value turn out when B7 was run?
Answer: ≥ 40%

Molecular target: T4, rat-derived WARS1 recombinant protein
Test: western blot; recombinant protein
Experimental: (§2) At this time, a WARS1 recombinant protein (human, mouse, pig, marmoset (NHP), or rat-derived), cell culture medium, and human or mouse serum were used as WARS1 protein samples. In particular, the cell culture medium was used by treating the human monocyte cell line, THP-1, or the mouse macrophage cell line, J774.1A, with LPS (lipopolysaccharide, 100 ng/ml) for 24 hours to induce an inflammatory response, and then the cell culture supernatant was obtained for use.
(§3) 30 μg of each of the WARS1 recombinant protein (human, mouse, pig, marmoset (NHP), or rat-derived), the cell supernatant obtained using the method above, and mouse or human serum was loaded onto 8% SDS-PAGE, then transferred to a PVDF membrane (Millipore). Afterwards, the membrane was reacted with 1 μg/ml of GKB101 or a variant antibody thereof for 1 hour each, then washed with TBST (TBS+Tween20) three times. Afterwards, it was reacted with a secondary antibody (anti-human IgG HRP, Millipore) for 1 hour, then washed with TBST three times to be treated with ECL (West® bright ECL, Advanta) to identify its protein expression (LAS-4000, Fujifilm).

Question: Does B10 bind?
Answer: binds

Question: Does B12 bind?
Answer: binds

Question: Does B11 bind?
Answer: binds

Question: Does B13 bind?
Answer: binds

Question: Does B14 bind?
Answer: binds

Question: Does B4 bind?
Answer: binds

Question: Does B15 bind?
Answer: binds

Question: Does B16 bind?
Answer: binds

Molecular target: T2, human WARS1 recombinant protein
Test: western blot; recombinant protein, THP-1 culture supernatant, human serum
Experimental: as §2, §3

Question: Does B12 bind?
Answer: binds

Question: Does B13 bind?
Answer: binds

Question: Does B14 bind?
Answer: binds

Question: Does B9 bind?
Answer: binds

Question: Does B3 bind?
Answer: binds

Question: Does B15 bind?
Answer: binds

Question: Does B16 bind?
Answer: binds

Question: Does B6 bind?
Answer: binds

Molecular target: T3, mouse-derived WARS1 recombinant protein
Test: western blot; recombinant protein, J774A.1 culture supernatant, mouse serum
Experimental: as §2, §3

Question: Does B10 bind?
Answer: binds

Question: Does B12 bind?
Answer: binds

Question: Does B11 bind?
Answer: binds

Question: Does B13 bind?
Answer: binds

Question: Does B14 bind?
Answer: binds

Question: Does B9 bind?
Answer: binds

Question: Does B4 bind?
Answer: binds

Question: Does B15 bind?
Answer: binds

Question: Does B16 bind?
Answer: binds
